This is an account of results in patent US20230399394A1 (SUNSHINE GUOJIAN PHARMACEUTICAL SHANGHAI, published 2023).

By Kd is commonly meant the constant that tells how readily two partners part at equilibrium. Broadly, the koff is the first-order rate constant of dissociation. A high value points to a short-lived complex. By kon is commonly meant a measure of how fast the partners come together. Low values mean slow association, high ones fast association. As usually defined, the IC50 is the concentration that gives 50% inhibition. Higher therefore signals a need for much substance. The term EC50 denotes the midpoint of the concentration-response curve. Low values mean greater potency, high ones weaker potency.

Experiment [1] deals with T1, Human IL-33-his (human, UniProt O95760 112-270, biotinylated with EZ-Link NHS-Biotin where used as IL-33-his-biotin).
T1 construct: Used plain (SPR, cell assays) and biotinylated (ELISA); also called IL-33-his-biotin
T1 sequence: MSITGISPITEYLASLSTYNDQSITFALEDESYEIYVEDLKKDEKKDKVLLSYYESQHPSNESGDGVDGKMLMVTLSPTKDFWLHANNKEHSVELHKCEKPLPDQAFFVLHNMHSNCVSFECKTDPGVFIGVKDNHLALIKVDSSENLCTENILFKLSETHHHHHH
Briefly: SPR Biacore 8K, antibody captured on Protein A/G chip, IL-33-his as analyte, 1:1 model. How it is done: A chip with covalently coupled Protein A/G (purchased from GE Healthcare, catalog number BR-1005-30) was used to capture each antibody to be tested, and the relevant operating parameters were as follows: The antibody concentration was […], the contact time was 75 s, the flow rate was […], and the regeneration contact time was 30 s. The IL-33-his antigen was diluted with HBS-EP pH7.4 buffer solution (purchased from GE Healthcare, catalog number BR-1006-69). The maximum concentration was 50 nM, and diluted to 0.39 nM by two-fold dilution. Duplicate wells and 0 concentration point well were set, and 6M guanidine hydrochloride solution was used as the regeneration buffer. The sample was injected on Biacore 8K according to the following parameters, the binding time was 180 s, the dissociation time was 900 s, the flow rate was 30 μL/min, and the regeneration contact time was 30 s. After running, Biacore 8K Evaluation Software was used to analyze the data according to the “1:1 binding kinetics model”, and the binding kinetics parameters of each antibody to IL-33 were obtained.
(In SPR one partner is held on a chip, and binding of the other changes the refractive index at the surface.)

The target of experiment [2] is T1, Human IL-33-his. In words: competition ELISA as Example 10, ST2-Fc on plate; competitor ST2-Fc. How it is done: ST2-Fc protein was diluted to 1 μg/mL with ELISA coating solution to coat ELISA plate with 100 μL/well. The plate was placed in a wet box at 4° C. for 16 h for coating. The ELISA plate was washed 3 times with PBST, and then was blocked with 2% BSA prepared in PBS at 200 μL/well at room temperature for 2 h. The plate was washed once with PBST, and was patted dry to remove the excess blocking solution. Each monoclonal antibody was diluted with 1% BSA prepared in PBST in a 3-fold gradient. The highest concentration of antibody was 10 μg/mL, and the antibody was diluted for 11 gradients. The diluted antibody was mixed 1:1 with 10 ng/ml IL-33-his-biotin, and then the mixture was added into the ELISA well at 100 μL/well. The plate was incubated at room temperature for 1 h. Each concentration was added to duplicate wells in parallel (maximum final concentration of antibody was […], final concentration of IL-33-his-biotin was 5 ng/mL). Unbound or non-specifically bound primary antibodies were washed out. According to the instructions of the antibody, HRP labeled streptavidin secondary antibody was diluted to an appropriate concentration with antibody diluent solution, then it was added to ELISA plate with 100 μL/well, and was incubated at room temperature for 1 h. The ELISA plate was washed with PBST for 5 times, and was patted dry on absorbent paper to remove excess liquid. TMB developing solution was added with 100 μL/well for development to an appropriate degree. 2M H₂SO₄ was added with 70 μL/well to terminate development, and the absorbance was measured at 450 nm on a multifunctional microplate reader. The data were analyzed.
The blocking effect of the above humanized antibodies on the binding of IL-33 to its receptor ST2 was determined by the ELISA method, and the relevant experimental methods were referred to Example 10.
On the technique in general: In an ELISA, binding on a coated surface is turned into a signal by an enzyme label.

Experiment [3] concerns the target T1, Human IL-33-his. Briefly: ELISA as Example 9, IL-33-his-biotin on streptavidin plate.
For experiment [4], the target named is T1, Human IL-33-his. Briefly: cell-based or functional assay.

B1: 871G1-Hu1 (antibody, human IgG4 S228P, kappa, V domains shown)
VH: QVQLQESGPGLVKPSETLSLTCTVSGFSLSKYGVHWIRQPPGKGLEWIGVLRAGGTISYNSALMSRVTISEDISKSQVSLKLSSVTAADTAVYYCARDHYYYSSFGGFASWGQGTLVTVSS
VL: DIQMTQSPSSVSASVGDRVTITCLASQTIGAWLAWYQQKPGKSPKLLIYAATRLADGVPSRFSGSGSGTDFTLTISSLQPEDFATYYCQQLNSTPYTFGQGTKVEIKR
notes: Humanized; also called humanized antibody 871G1-Hu1
In the experiment with Human IL-33-his [1], B1 returned a Kd of 1.71 nM, a koff of 0.000504 s⁻¹ and an association rate constant (kon) of 295000 M⁻¹ s⁻¹. The IC50 in the experiment with Human IL-33-his [2] turned out to be 0.404 nM. This molecule returned an EC50 in the experiment with Human IL-33-his [3] of 0.191 nM. Besides, in the experiment with Human IL-33-his [4], the “IC50 of inhibition of IFNγ secretion by NK cells induced by IL-33” value (from here on “IC50 of inhibition of IFNγ secretion”) came out at 0.851 nM, the “IC50 of the inhibitory effect on IL-6 expression in HUVEC cells induced by IL-33” value amounted to 0.21 nM and the “IC50 of the inhibitory effect on the IFN-γ secretion of PBMC induced by IL-33” value came out at 1.4 nM.

B2: 874F7-Hu2 (antibody, human IgG4 S228P, kappa, V domains shown)
VH: QVQLQESGPGLVKPSETLSLTCTVSGFSLSKYGVHWIRQPPGKGLEWLGVLRAGGSTGYNSALMSRLTISKDSSKSQVSLKLSSVTAADTAVYYCVRDHYYYSSYGGFVYWGQGTLVTVSS
VL: DIQMTQSPSSVSASVGDRVTITCLASQTIGAWLAWYQQKPGKSPKLLIYAATRLADGVPSRFSGSGSGTDFTLTISSLQPEDFATYYCQQLDSSPYTFGQGTKVEIKR
notes: Humanized; also called humanized antibody 874F7-Hu2
For the molecule B2, in the experiment with Human IL-33-his [1], binding was characterised by a dissociation constant (Kd) of 2.97 nM, the koff is 0.000576 s⁻¹ and the on-rate constant (kon) is 194000 M⁻¹ s⁻¹. In the experiment with Human IL-33-his [2], this molecule gave an IC50 of 0.35 nM. The molecule also had an EC50 with Human IL-33-his [3] of 0.136 nM. For the same molecule, in the experiment with Human IL-33-his [4], the “IC50 of inhibition of IFNγ secretion” value stood at 1.56 nM, the “IC50 of the inhibitory effect on IL-6 expression in HUVEC cells induced by IL-33” value was determined as 0.05 nM and the “IC50 of the inhibitory effect on the IFN-γ secretion of PBMC induced by IL-33” value turned out to be 1.74 nM.

B3: 864F3-Hu1 (antibody, human IgG4 S228P, kappa, V domains shown)
VH: QVQLQESGPGLVKPSETLSLTCTVSGFSLTNYGVHWIRLPPGKGLEWIGVIRAGGSSDYNSALMSRVTISKDNSKSQVSLKLSSVTAADTAVYYCARDHYFSNSYGGSPYWGQGTLVTVSS
VL: DIQMTQSPSSLSASVGDRVTITCLASQTIATWLAWYQQKPGKSPKLLIYAATRLADGVPSRFSGSGSGTDFTLTISSLQPEDFATYYCQQLYNTPYTFGQGTKVEIKR
notes: Humanized; also called humanized antibody 864F3-Hu1
B3: in the experiment with Human IL-33-his [3], the response was half-maximal at 0.249 nM (EC50).

B4: 864F3-Hu3 (antibody, human IgG4 S228P, kappa, V domains shown)
VH: QVQLQESGPGLVKPSETLSLTCTVSGFSLSKYGVHWIRQPPGKGLEWIGVLRAGGTISYNSALMSRVTISVDTSKNQFSLKLSSVTAADTAVYYCARDHYYYSSFGGFASWGQGTLVTVSS
VL: DIQMTQSPSSLSASVGDRVTITCLASQTIATWLAWYQQKPGKSPKLLIYAATRLADGVPSRFSGSGSGTDFTLTISSLQPEDFATYYCQQLYNTPYTFGQGTKVEIKR
notes: Humanized; also called humanized antibody 864F3-Hu3
Regarding B4, it took 0.138 nM to reach a half-maximal effect with Human IL-33-his [3] (EC50).

B5: 874F7-HuG (antibody, human IgG4 S228P, kappa, V domains shown)
VH: QVQLQESGPGLVKPSETLSLTCTVSGFSLSKYGVHWIRQPPGKGLEWIGVLRAGGSTGYNSALMSRVTISVDTSKNQFSLKLSSVTAADTAVYYCARDHYYYSSYGGFVYWGQGTLVTVSS
VL: DIQMTQSPSSVSASVGDRVTITCLASQTIGAWLAWYQQKPGKSPKLLIYAATRLADGVPSRFSGSGSGTDFTLTISSLQPEDFATYYCQQLDSSPYTFGQGTKVEIKR
notes: Humanized; also called 874F7-Hµg; humanized antibody 874F7-HuG
For B5, the EC50 with Human IL-33-his [3] was 0.17 nM.

B6: 864F3-HuG (antibody, human IgG4 S228P, kappa, V domains shown)
VH: QVQLQESGPGLVKPSETLSLTCTVSGFSLTNYGVHWIRQPPGKGLEWIGVIRAGGSSDYNSALMSRVTISVDTSKNQFSLKLSSVTAADTAVYYCARDHYFSNSYGGSPYWGQGTLVTVSS
VL: DIQMTQSPSSLSASVGDRVTITCLASQTIATWLAWYQQKPGKSPKLLIYAATRLADGVPSRFSGSGSGTDFTLTISSLQPEDFATYYCQQLYNTPYTFGQGTKVEIKR
notes: Humanized; also called humanized antibody 864F3-HuG
B6 came in with an EC50 with Human IL-33-his [3] of 0.76 nM.

B7: 864F3-Hu2 (antibody, human IgG4 S228P, kappa, V domains shown)
VH: QVQLQESGPGLVKPSETLSLTCTVSGFSLTNYGVHWVRLPPGKGLEWLGVIRAGGSSDYNSALMSRLTISKDNSKSQVSLKLSSVTAADTAVYYCARDHYFSNSYGGSPYWGQGTLVTVSS
VL: DIQMTQSPSSLSASVGDRVTITCLASQTIATWLAWYQQKPGKSPKLLIYAATRLADGVPSRFSGSGSGTDFTLTISSLQPEDFATYYCQQLYNTPYTFGQGTKVEIKR
notes: Humanized; also called humanized antibody 864F3-Hu2
Molecule B7 displayed a half-maximal effective concentration (EC50) with Human IL-33-his [3] of 0.181 nM.

B8: 871G1-HuG (antibody, human IgG4 S228P, kappa, V domains shown)
VH: QVQLQESGPGLVKPSETLSLTCTVSGFSLSKYGVHWIRQPPGKGLEWIGVLRAGGTISYNSALMSRVTISVDTSKNQFSLKLSSVTAADTAVYYCARDHYYYSSFGGFASWGQGTLVTVSS
VL: DIQMTQSPSSVSASVGDRVTITCLASQTIGAWLAWYQQKPGKSPKLLIYAATRLADGVPSRFSGSGSGTDFTLTISSLQPEDFATYYCQQLNSTPYTFGQGTKVEIKR
notes: Humanized; also called humanized antibody 871G1-HuG
As to B8, the EC50 in the experiment with Human IL-33-his [3] was 0.187 nM.

B9: 864F3-Hu5 (antibody, human IgG4 S228P, kappa, V domains shown)
VH: QVQLQESGPGLVKPSETLSLTCTVSGFSLSKYGVHWIRQPPGKGLEWLGVLRAGGTISYNSALMSRLTISEDISKSQVSLKLSSVTAADTAVYYCARDHYYYSSFGGFASWGQGTLVTVSS
VL: DIQMTQSPSSLSASVGDRVTITCLASQTIATWLAWYQQKPGKSPKLLIYAATRLADGVPSRFSGSGSGTDFTLTISSLQPEDFATYYCQQLYNTPYTFGQGTKVEIKR
notes: Humanized; also called humanized antibody 864F3-Hu5
In the experiment with Human IL-33-his [1], B9 gave an equilibrium dissociation constant (Kd) of 1.36 nM, an off-rate (koff) of 0.000439 s⁻¹ and a kon of 323000 M⁻¹ s⁻¹. This molecule returned a half-maximal inhibitory concentration (IC50) with Human IL-33-his [2] of 0.473 nM. The molecule further displayed an EC50 with Human IL-33-his [3] of 0.146 nM. Further, in the experiment with Human IL-33-his [4], the “IC50 of inhibition of IFNγ secretion” value came to 1.02 nM, the “IC50 of the inhibitory effect on IL-6 expression in HUVEC cells induced by IL-33” value came to 0.147 nM and the “IC50 of the inhibitory effect on the IFN-γ secretion of PBMC induced by IL-33” value was determined as 0.839 nM.

B10: 871G1-Hu2 (antibody, human IgG4 S228P, kappa, V domains shown)
VH: QVQLQESGPGLVKPSETLSLTCTVSGFSLSKYGVHWIRQPPGKGLEWLGVLRAGGTISYNSALMSRLTISEDISKSQVSLKLSSVTAADTAVYYCARDHYYYSSFGGFASWGQGTLVTVSS
VL: DIQMTQSPSSVSASVGDRVTITCLASQTIGAWLAWYQQKPGKSPKLLIYAATRLADGVPSRFSGSGSGTDFTLTISSLQPEDFATYYCQQLNSTPYTFGQGTKVEIKR
notes: Humanized; also called humanized antibody 871G1-Hu2
In the experiment with Human IL-33-his [1], B10 registered a Kd of 1.76 nM, a koff of 0.000527 s⁻¹ and a kon of 300000 M⁻¹ s⁻¹. The IC50 with Human IL-33-his [2] came out at 0.361 nM. For the same molecule, a half-maximal effect with Human IL-33-his [3] (EC50) was put at 0.176 nM. For the same molecule, in the experiment with Human IL-33-his [4], the “IC50 of inhibition of IFNγ secretion” value is 0.9 nM, the “IC50 of the inhibitory effect on IL-6 expression in HUVEC cells induced by IL-33” value worked out at 0.175 nM and the “IC50 of the inhibitory effect on the IFN-γ secretion of PBMC induced by IL-33” value was 1.06 nM.
